We go through 1 molecule from PMC4699798 (Cell, 2015).

This assay deals with Slit-N fused to alkaline phosphatase (Drosophila). Nature of the assay: alkaline phosphatase fusion binding assay on beads.

B1: Dscam1 EC4 fused to Fc (Fc fusion)
chain: ANPPDADQKGPVFLKEPTNRIDFSNSTGAEIECKASGNPMPEIIWIRSDGTAVGDVPGLRQISSDGKLVFPPFRAEDYRQEVHAQVYACLARNQFGSIISRDVHVRAVVAQYYEADVNKEHVIRGNSAVIKCLIPSFVADFVEVVSWHTDEEENYFPGAEYDGKYLVLPSGELHIREVGPEDGYKSYQCRTKHRLTGETRLSATKGRLVITEPVSSSPPKINALTYKPNIVESMASTAILCPAQGYPAPSFRWYKFIEGTTRKQAVVLNDRVKQVSGTLIIKDAVVEDSGKYLCVVNNSVGGESVETVLTVTAPLSAKIDPPTQTVDFGRPAVFTCQYTGNPIKTVSWMKDGKAIGHSEPVLRIESVKKEDKGMYQCFVRNDQESAEASAELK
For the molecule B1, the affinity, expressed as Kd, was 22.2 ± 2.85 nM.
